Experiments:
[1] = target: histone H3 amino acids 16-35, H3K27me2 peptide (UniProt P68431); assay: peptide or protein array
[2] = target: histone H3 amino acids 16-35, H3K27me3 peptide (UniProt P68431); assay: peptide or protein array

Substance | fold increase in binding over the unmodified peptide [1] [fold] | fold increase in binding over the unmodified peptide [2] [fold] | fold increase in binding over the corresponding unmodified peptide [1] [fold] | fold increase in binding over the corresponding unmodified peptide [2] [fold]
GST-tagged PWWP2 domain of Apis mellifera DNMT3 (domain or fragment) | 3 | 3 | – | –
GST-tagged PWWP1 domain of Apis mellifera DNMT3 (domain or fragment) | – | – | 5 | 3

Reference: PMC10618690
